Experiments:
Test in all cases: holdup assay
Set-up in all cases: key: below the threshold = too weak to quantify, mostly under pKd 3.1 to 4
[1] = target: GRASP, Q7Z6J2
[2] = target: MAGI2_2, Q86UL8
[3] = target: LAP2, Q96RT1
[4] = target: NHERF4_2, Q86UT5
[5] = target: DLG2_2, Q15700
[6] = target: Inadl_9, Q8NI35
[7] = target: IL16_4, Q14005
[8] = target: T1, PDZD7_3, Q9H5P4
T1 sequence (Q9H5P4 857-944, limits assumed, looked up): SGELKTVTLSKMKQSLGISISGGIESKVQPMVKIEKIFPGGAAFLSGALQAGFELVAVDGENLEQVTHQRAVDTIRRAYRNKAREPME

[9] = target: MAGI2_3, Q86UL8
Sequence of MAGI2_3, Q86UL8 (Q86UL8 600-682): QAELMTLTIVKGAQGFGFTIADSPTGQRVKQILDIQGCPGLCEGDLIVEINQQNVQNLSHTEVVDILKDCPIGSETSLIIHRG

[10] = target: T2, APBA1_2, Q02410
T2 sequence (Q02410 742-832, limits assumed, looked up): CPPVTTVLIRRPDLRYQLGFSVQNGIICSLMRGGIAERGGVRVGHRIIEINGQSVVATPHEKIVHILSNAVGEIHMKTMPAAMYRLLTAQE

[11] = target: T3, RHPN1, Q8TCX5
T3 sequence (Q8TCX5 508-602, limits assumed, looked up): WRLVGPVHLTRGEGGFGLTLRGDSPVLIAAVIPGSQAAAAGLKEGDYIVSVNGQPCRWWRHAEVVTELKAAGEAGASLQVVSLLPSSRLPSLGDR

[12] = target: T4, CARD11, Q9BXL7
T4 sequence (Q9BXL7 662-765, limits assumed, looked up): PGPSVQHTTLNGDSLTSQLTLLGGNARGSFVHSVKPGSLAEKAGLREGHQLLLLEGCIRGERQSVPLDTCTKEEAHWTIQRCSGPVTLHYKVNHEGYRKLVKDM

[13] = target: PDZRN4_1, Q6ZMN7
Sequence of PDZRN4_1, Q6ZMN7 (Q6ZMN7 213-318): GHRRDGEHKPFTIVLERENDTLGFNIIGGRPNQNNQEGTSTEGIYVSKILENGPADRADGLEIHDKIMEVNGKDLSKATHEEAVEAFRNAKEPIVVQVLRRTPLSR

[14] = target: Inadl_10, Q8NI35
Sequence of Inadl_10, Q8NI35 (Q8NI35 1673-1763): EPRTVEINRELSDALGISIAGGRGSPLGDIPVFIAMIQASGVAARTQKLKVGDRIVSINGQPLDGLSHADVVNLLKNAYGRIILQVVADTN

[15] = target: T5, NHERF3_3, Q5T2W1
T5 sequence (Q5T2W1 238-333, limits assumed, looked up): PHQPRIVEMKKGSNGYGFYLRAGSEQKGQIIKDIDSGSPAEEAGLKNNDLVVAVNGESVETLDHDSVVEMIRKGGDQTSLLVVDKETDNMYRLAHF

[16] = target: T6, MPP6, Q9NZW5
T6 sequence (Q9NZW5 125-219, limits assumed, looked up): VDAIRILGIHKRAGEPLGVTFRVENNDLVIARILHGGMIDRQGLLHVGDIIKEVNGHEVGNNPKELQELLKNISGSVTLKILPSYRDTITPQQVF

[17] = target: Inadl_8, Q8NI35
Sequence of Inadl_8, Q8NI35 (Q8NI35 1425-1530): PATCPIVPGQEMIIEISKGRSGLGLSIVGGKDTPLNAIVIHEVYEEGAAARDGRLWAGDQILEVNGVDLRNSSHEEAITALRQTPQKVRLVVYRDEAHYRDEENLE

[18] = target: FRMPD4, Q14CM0
Sequence of FRMPD4, Q14CM0 (Q14CM0 67-160): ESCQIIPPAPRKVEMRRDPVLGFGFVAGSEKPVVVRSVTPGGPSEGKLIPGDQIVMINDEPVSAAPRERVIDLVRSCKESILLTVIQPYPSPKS

[19] = target: T7, HTRA4, P83105
T7 sequence (P83105 378-476, limits assumed, looked up): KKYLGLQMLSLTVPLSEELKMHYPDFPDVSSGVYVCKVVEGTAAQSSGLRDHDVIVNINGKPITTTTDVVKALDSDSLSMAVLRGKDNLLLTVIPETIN

[20] = target: T8, NHERF3_4, Q5T2W1
T8 sequence (Q5T2W1 373-468, limits assumed, looked up): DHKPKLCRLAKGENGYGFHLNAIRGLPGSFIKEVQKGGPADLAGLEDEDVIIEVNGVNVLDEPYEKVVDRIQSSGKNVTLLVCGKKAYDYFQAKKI

[21] = target: T9, DLG3_3, Q92796
T9 sequence (Q92796 374-475, limits assumed, looked up): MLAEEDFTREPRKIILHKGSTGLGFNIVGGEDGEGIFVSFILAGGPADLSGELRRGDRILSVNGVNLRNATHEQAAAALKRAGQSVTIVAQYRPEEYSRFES

[22] = target: T10, DVL3, Q92997
T10 sequence (Q92997 244-331, limits assumed, looked up): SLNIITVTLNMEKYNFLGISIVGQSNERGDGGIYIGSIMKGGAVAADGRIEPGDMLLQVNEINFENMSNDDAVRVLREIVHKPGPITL

[23] = target: NHERF2_2, Q15599
Sequence of NHERF2_2, Q15599 (Q15599 142-238): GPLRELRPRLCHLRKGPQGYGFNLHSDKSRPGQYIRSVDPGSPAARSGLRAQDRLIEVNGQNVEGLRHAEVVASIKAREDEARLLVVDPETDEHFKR

[24] = target: T11, PDZD2_2, O15018
T11 sequence (O15018 329-429, limits assumed, looked up): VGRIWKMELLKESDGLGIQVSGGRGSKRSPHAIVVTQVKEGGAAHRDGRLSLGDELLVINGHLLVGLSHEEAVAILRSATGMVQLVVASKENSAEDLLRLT

[25] = target: T12, FRMPD1, Q5SYB0
T12 sequence (Q5SYB0 52-145, limits assumed, looked up): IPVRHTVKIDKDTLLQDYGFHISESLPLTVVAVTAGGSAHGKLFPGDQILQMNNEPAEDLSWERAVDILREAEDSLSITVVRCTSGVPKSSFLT

[26] = target: HTRA2, O43464
Sequence of HTRA2, O43464 (O43464 355-458): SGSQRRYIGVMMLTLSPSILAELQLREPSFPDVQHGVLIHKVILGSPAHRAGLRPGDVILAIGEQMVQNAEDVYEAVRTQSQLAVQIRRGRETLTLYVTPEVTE

[27] = plain residues with an end cap or a label only (N-terminal biotin on a linker: ado-ado)
[28] = plain residues with an end cap or a label only (N-terminal biotin on a linker: ahx)
[29] = plain residues with an end cap or a label only (N-terminal biotin on a linker: ttds)

Sequence of Inadl_9, Q8NI35 (Q8NI35 1530-1615): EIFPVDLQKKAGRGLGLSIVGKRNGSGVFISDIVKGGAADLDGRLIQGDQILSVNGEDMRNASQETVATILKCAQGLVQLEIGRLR
Sequence of NHERF4_2, Q86UT5 (Q86UT5 220-308): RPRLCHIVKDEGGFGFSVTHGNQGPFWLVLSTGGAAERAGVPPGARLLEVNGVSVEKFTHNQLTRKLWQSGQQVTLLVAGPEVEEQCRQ
Sequence of GRASP, Q7Z6J2 (Q7Z6J2 96-193): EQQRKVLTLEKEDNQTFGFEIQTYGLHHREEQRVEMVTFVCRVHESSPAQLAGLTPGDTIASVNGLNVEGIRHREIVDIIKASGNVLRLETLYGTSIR
Sequence of IL16_4, Q14005 (Q14005 1229-1329): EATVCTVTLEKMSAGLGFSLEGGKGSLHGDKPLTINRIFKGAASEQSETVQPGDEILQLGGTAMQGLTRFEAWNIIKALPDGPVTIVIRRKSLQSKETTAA
Sequence of MAGI2_2, Q86UL8 (Q86UL8 410-522): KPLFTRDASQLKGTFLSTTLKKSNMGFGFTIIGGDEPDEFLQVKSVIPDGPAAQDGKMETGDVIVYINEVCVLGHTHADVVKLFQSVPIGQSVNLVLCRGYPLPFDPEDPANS
Sequence of DLG2_2, Q15700 (Q15700 189-283): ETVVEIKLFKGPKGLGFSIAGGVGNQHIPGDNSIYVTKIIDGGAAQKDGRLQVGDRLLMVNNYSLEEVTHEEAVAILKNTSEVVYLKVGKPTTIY
Sequence of LAP2, Q96RT1 (Q96RT1 other isoform, or with tags, fused parts or gaps): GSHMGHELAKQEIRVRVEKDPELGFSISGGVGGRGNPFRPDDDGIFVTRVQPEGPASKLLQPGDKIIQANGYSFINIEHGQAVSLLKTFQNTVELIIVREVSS

B1: FMNL3, Q8IVF7 (peptide)
chain: DAAHHDESNC
pKd [1, 27]: below the threshold | pKd [2, 27]: below the threshold | pKd [3, 27]: below the threshold | pKd [4, 27]: below the threshold | pKd [5, 27]: below the threshold | pKd [6, 27]: below the threshold | pKd [7, 27]: below the threshold | pKd [8, 27]: below the threshold | pKd [9, 27]: below the threshold | pKd [10, 27]: below the threshold | pKd [11, 27]: 3.75 | pKd [12, 27]: below the threshold | pKd [13, 27]: below the threshold | pKd [14, 27]: below the threshold | pKd [15, 27]: below the threshold | pKd [16, 27]: below the threshold | pKd [17, 27]: below the threshold | pKd [18, 27]: below the threshold | pKd [19, 27]: below the threshold | pKd [20, 27]: below the threshold | pKd [21, 27]: below the threshold | pKd [22, 27]: below the threshold | pKd [23, 27]: below the threshold | pKd [24, 27]: 4.13 | pKd [25, 27]: below the threshold | pKd [26, 27]: below the threshold

B2: CNTNAP4, Q9C0A0 (peptide)
chain: VNENQKEYFF
pKd [1, 28]: below the threshold | pKd [2, 28]: below the threshold | pKd [3, 28]: below the threshold | pKd [4, 28]: below the threshold | pKd [5, 28]: below the threshold | pKd [6, 28]: below the threshold | pKd [7, 28]: below the threshold | pKd [8, 28]: below the threshold | pKd [9, 28]: below the threshold | pKd [10, 28]: 4.47 | pKd [11, 28]: below the threshold | pKd [12, 28]: below the threshold | pKd [13, 28]: below the threshold | pKd [14, 28]: below the threshold | pKd [15, 28]: below the threshold | pKd [16, 28]: below the threshold | pKd [17, 28]: below the threshold | pKd [18, 28]: 4.65 | pKd [19, 28]: below the threshold | pKd [20, 28]: below the threshold | pKd [21, 28]: below the threshold | pKd [22, 28]: 4.9 | pKd [23, 28]: below the threshold | pKd [24, 28]: below the threshold | pKd [25, 28]: below the threshold | pKd [26, 28]: below the threshold

B3: SLC1A3, P43003 (peptide)
chain: EKPIDSETKM
pKd [1, 27]: below the threshold | pKd [2, 27]: below the threshold | pKd [3, 27]: below the threshold | pKd [4, 27]: below the threshold | pKd [5, 27]: below the threshold | pKd [6, 27]: below the threshold | pKd [7, 27]: below the threshold | pKd [8, 27]: below the threshold | pKd [9, 27]: below the threshold | pKd [10, 27]: below the threshold | pKd [11, 27]: 3.55 | pKd [12, 27]: below the threshold | pKd [13, 27]: below the threshold | pKd [14, 27]: below the threshold | pKd [15, 27]: 3.61 | pKd [16, 27]: below the threshold | pKd [17, 27]: below the threshold | pKd [18, 27]: below the threshold | pKd [19, 27]: below the threshold | pKd [20, 27]: below the threshold | pKd [21, 27]: below the threshold | pKd [22, 27]: below the threshold | pKd [23, 27]: 4.47 | pKd [24, 27]: below the threshold | pKd [25, 27]: below the threshold | pKd [26, 27]: below the threshold

B4: RALBP1, Q15311 (peptide)
chain: PSRDRKETSI
pKd [1, 29]: below the threshold | pKd [2, 29]: 4.03 | pKd [3, 29]: 3.37 | pKd [4, 29]: below the threshold | pKd [5, 29]: 4.29 | pKd [6, 29]: below the threshold | pKd [7, 29]: below the threshold | pKd [8, 29]: 4.89 | pKd [9, 29]: below the threshold | pKd [10, 29]: 3.32 | pKd [11, 29]: 3.92 | pKd [12, 29]: below the threshold | pKd [13, 29]: 4.57 | pKd [14, 29]: below the threshold | pKd [15, 29]: below the threshold | pKd [16, 29]: below the threshold | pKd [17, 29]: below the threshold | pKd [18, 29]: below the threshold | pKd [19, 29]: below the threshold | pKd [20, 29]: below the threshold | pKd [21, 29]: 4.77 | pKd [22, 29]: below the threshold | pKd [23, 29]: below the threshold | pKd [24, 29]: 3.75 | pKd [25, 29]: below the threshold | pKd [26, 29]: below the threshold
